Measurements: patent US20100173005A1, “MICROPARTICLE FORMULATIONS FOR SUSTAINED-RELEASE OF BIOACTIVE COMPOUNDS” (POWDER PHARMACEUTICALS INCORPORATED, priority 1999, published 2010)

Assays:
[1] = Repeat sustained release study of lysozyme from sulfated dextran beads: PBS elution at 0.84 ml/min, HPLC analysis; assay type: physicochemical
Method: The sustained release study described in the above Example was repeated except, in this instance, a different elution rate was used to determine if the rate of release of the lysozyme guest substance from the dextran is a function of the flow rate of the elution buffer.
More particularly, sulfated dextran beads were loaded with lysozyme as described in the above Example. The specifics of the loading were as follows: 42.4 g of the hydrated dextran beads was stirred in 100 ml of lysozyme solution (to yield a 20.11 mg/ml solution) for 1 hour. The loaded beads were then loaded into a column as described above for a further sustained release study.
For the PBS elution, the PBS wash (pH 7.4) was used to elute lysozyme from the beads at a flow rate of 0.84 ml/min for 20.6 hours. The eluted solution was collected in fractions, and the elution fractions were analyzed with HPLC for lysozyme concentration using a Vydac C18 HPLC column. For the high-salt elution, the remaining lysozyme in the beads was then eluted with the high-salt elution buffer at a rate of […].
The amount of lysozyme protein that eluted with the PBS wash was 39.51 mg and, from the high salt elution, the amount of lysozyme was 40.34 mg. Accumulated percent lysozyme release (Y) was plotted against elution time (X).

[2] = Sustained release of lysozyme from sulfated dextran hydrogel beads: PBS wash then high salt elution, UV detection; assay type: physicochemical
Text: A preparation of cross-linked, sulfated dexan affinity chromatography resin beads were obtained from a commercial source (Sigma. St, Louis, Mo.). More particularly, 4% cross-linked sulfated beaded dextran was obtained as a lyophilized powder stabilized in lactose. The sulfate ligand will bind with a charged guest substance (e.g. a peptide or protein) at low salt concentration. This binding is reversible and the bound guest can be desorbed at a high salt concentration.
In the study, lysozyme (Sigma) was loaded into the beads using the techniques described in commonly held International Application No. PCT/GB00/00349.
Particularly, each gram of the sulfated dextran beads was washed with approximately 3×500 ml deionized water. Excess water was removed by vacuum filtration. A loading solution was prepared by dissolving 4.00 g lysozyme in 200 ml deionized water, yielding a 20 mg/ml solution. The loading solution was added to the hydrated dextran beads at a 1:1 ratio to provide a suspension. The suspension was stirred for one hour, and excess solution was drained from the hydrated beads. The loaded beads were then divided into two portions. The first portion (5.7 cc, experimental) was placed into a column (Econo column, BioRad, Hercules, Calif.) and washed with a phosphate buffered saline (PBS) solution (pH 7.4) for 19.6 hours, then eluted with 21.2 ml of a high salt elution buffer (1.0M ammonium sulfate, 50 mM sodium phosphate, pH 7.2). […] The amount of lysozyme released from the dextran beads during the PBS wash was determined by comparison against the amount of lysozyme eluted by the elution solution for both the experimental and the control portions.
Lysozyme concentration was determined using a UV detector (BioRad UV detector). A standard curve (UV absorption vs lysozyme concentration) was prepared by measuring the UV absorption of stock lysozyme solutions at different concentration ranging from 1 mg/ml to 4 mg/ml, Concentrations of the unknowns were then determined by extrapolation of the standard curve. […]

lysozyme
release rate (slope of accumulated percent release vs elution time) ([1]; PBS elution at 0.84 ml/min, line equation Y=1.49X+0.242): 1.49 %/hr | amount of lysozyme protein eluted with the PBS wash ([1]; PBS pH 7.4, flow rate 0.84 ml/min for 20.6 hours, HPLC): 39.51 mg | amount of lysozyme from the high salt elution ([1]; remaining lysozyme eluted with high-salt elution buffer after the PBS wash): 40.34 mg | amount of lysozyme eluted in the elution buffer ([2]; control portion, immediately eluted with high salt elution buffer alone): 10.5 mg/ml wet beads | amount of lysozyme eluted in the elution buffer ([2]; experimental portion (PBS washed beads, 19.6 hours), high salt elution buffer 1.0M ammonium sulfate, 50 mM sodium phosphate, pH 7.2): 3.72 mg/ml beads | amount of lysozyme released during the PBS wash ([2]; experimental portion, PBS pH 7.4 wash for 19.6 hours, UV detector): not detectable
